The target in assay [1] is T1, human VEGF-A (human, UniProt P15692-4 27-191, limits assumed).
T1 construct: Sources differ between assays (Dr. Brekken; R&D Systems); also called VEGF-biotin (biotinylated form in the receptor ELISA)
As to the kind of experiment: SPR (Biacore 3000); IgG over immobilized VEGF-A; 1:1 binding model; initial study; initial study; Biacore 3000; IgG over immobilized VEGF-A. Background: In SPR one partner is held on a chip, and binding of the other changes the refractive index at the surface.

Assay [2] concerns the target T1, human VEGF-A. As to the kind of experiment: SPR (Biacore T100); IgG over 100 RU human VEGF-A on a CM5 chip; 1:1 fit; 37°C. On the procedure:
(§1) The background signal from a flow cell coated with BSA was subtracted from the binding curves. The binding affinity expressed as the KD was calculated by the 1:1 Fitting model using software belonging to the Biacore T100 machine.

In assay [3] the target is T1, human VEGF-A. As to the kind of experiment: SPR (Biacore T100); IgG over 100 RU human VEGF-A on a CM5 chip. How it is done:
as §1

Assay [4] concerns the target T1, human VEGF-A. As to the kind of experiment: SPR (Biacore T100); IgG over 100 RU human VEGF-A on a CM5 chip; 1:1 fit; 25°C. How it is done:
as §1

T1 sequence (P15692 other isoform, or with tags, fused parts or gaps limits assumed): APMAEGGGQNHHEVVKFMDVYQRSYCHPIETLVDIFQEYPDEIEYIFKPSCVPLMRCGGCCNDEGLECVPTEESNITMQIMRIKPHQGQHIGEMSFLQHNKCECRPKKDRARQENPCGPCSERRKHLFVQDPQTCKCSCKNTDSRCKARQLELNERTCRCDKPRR

B1: r84/PGN311 full length fully human IgG (antibody, V domains shown)
VH: QVQLVQSGAEVKKPGASVKVSCKASGGTFSSYAISWVRQAPGQGLEWMGGFDPEDGETIYAQKFQGRVTMTEDTSTDTAYMELSSLRSEDTAVYYCATGRSMVRGVIIPFNGMDVWGQGTTVTVSS
VL: not shown
notes: Human IgG1/kappa (Lonza pCon IgG1a and kappa vectors, CHO K1SV cells); also called r84 IgG; r84/PGN311 IgG
Take B1: the values for the dissociation constant (Kd) in the assay with human VEGF-A [1], with human VEGF-A [2] and in the assay with human VEGF-A [4] were 6.7 nM, 5.22 nM and 3.21 nM, respectively. Moreover, the “fold reduction of KD, 25°C versus 37°C” value with human VEGF-A [3] is less than 2 fold.

The Kd is the concentration at which binding is half-saturated.

The values above are taken from patent publication US20120064001A1 (AFFITECH RESEARCH, published 2012).
